Laboratory results published in PMC8517857, “BusR senses bipartite DNA binding motifs by a unique molecular ruler architecture” (Nucleic Acids Research, 2021).

Columns and labels:
BusR = target: T1, BusR (Streptococcus agalactiae, UniProt K0JNC6); assay: ITC; […] Å co-crystal structure of the RCK_C domain; cryo-EM of the BusR:c-di-AMP:DNA complex; format: binding
T1 construct: gene BM110_ORF1201; full-length BusR (ITC)

[1] = target: His6-RCK_C domain of S. agalactiae BusR (Leu135 to end) (Streptococcus agalactiae); assay: SAXS; isolated RCK_C domain in the absence of c-di-AMP; batch mode or SEC-SAXS, P12 beamline, PETRA III
[2] = target: His6-RCK_C domain of S. agalactiae BusR (Leu135 to end) (Streptococcus agalactiae); assay: crystal structure; apo His6-RCK_C, 6 mg/mL, 0.1 M Bis-Tris pH 6.5, 18% PEG MME 5000, 20°C; 1 Å; dimer by a symmetry related copy
[3] = target: selenomethionine substituted full-length BusR from Streptococcus agalactiae (Streptococcus agalactiae); assay: crystal structure; selenomethionine full-length BusR, apo, 7 mg/ml, 150 mM magnesium-acetate, 6% D+trehalose, 20°C; SAD, 2.8 Å
[4] = target: BusR from Streptococcus agalactiae (full length) (Streptococcus agalactiae); assay: SAXS; full length BusR in 20 mM HEPES pH 7.5, 200 mM NaCl, 3% glycerol; P12 beamline, PETRA III
[5] = target: BusR from Streptococcus agalactiae (full length) (Streptococcus agalactiae); assay: cryo-EM structure; BusR with c-di-AMP (100 μM) and operator DNA (pAB, 4.5 Å; pAB1, 7.1 Å), 20 mM HEPES pH 6.5, 100 mM NaCl
[6] = target: BusR from Streptococcus agalactiae (full length) (Streptococcus agalactiae); assay: SEC-MALS; SEC-coupled right angle light scattering (SEC-RALS), Superdex S200 10/300 increase, 20°C, buffer SEC (30 mM NaPi pH 6.5, 200 mM NaCl, 3% glycerol); BusR alone (apo) and with c-di-AMP
[7] = target: RCK_C domain of S. agalactiae BusR (Leu135 to end), no His6-tag (Streptococcus agalactiae); assay: crystal structure; RCK_C (no His6-tag), 4.5 mg/mL, co-crystallised with 1 mM c-di-AMP, 100 mM sodium-acetate pH 4.6, 3% PEG 4000, 20°C; 1.2 Å
BusR wt [8] = target: T2, BusR wt (Streptococcus agalactiae DSM 16828, UniProt K0JNC6 1-213); assay: EMSA; 10 uM c-di-AMP, 100 nM BusR; EMSA: 100 mM KPi pH 6.5, 20 mM KCl, 30 min 20 C, 20 nM DNA, gel at 8 C; SPR: 100 mM NaPi pH 6.5, 20 mM KCl, 200 mM NaCl, 3 mM EDTA, 0.05% P20; BusR concentrations as tetramer; conditions: protein: recombinant; tags: His6-MBP removed with PreScission protease; chain copies: 4; label: 5'-6-FAM on strand 1; blunt
T2 sequence: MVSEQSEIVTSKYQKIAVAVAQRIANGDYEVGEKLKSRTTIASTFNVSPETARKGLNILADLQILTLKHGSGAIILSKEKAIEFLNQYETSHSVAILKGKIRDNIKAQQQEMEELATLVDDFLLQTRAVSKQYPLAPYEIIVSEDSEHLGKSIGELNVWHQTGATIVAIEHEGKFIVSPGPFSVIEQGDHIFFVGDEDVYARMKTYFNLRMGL

BusR W159A [9] = target: T3, BusR W159A (Streptococcus agalactiae DSM 16828, UniProt K0JNC6 1-213, W159A); assay: SPR; no c-di-AMP; EMSA: 100 mM KPi pH 6.5, 20 mM KCl, 30 min 20 C, 20 nM DNA, gel at 8 C; SPR: 100 mM NaPi pH 6.5, 20 mM KCl, 200 mM NaCl, 3 mM EDTA, 0.05% P20; BusR concentrations as tetramer; conditions: protein: recombinant; tags: His6-MBP removed with PreScission protease; chain copies: 4; blunt
BusR W159A [10] = target: T3, BusR W159A; assay: SPR; 10 uM c-di-AMP; EMSA: 100 mM KPi pH 6.5, 20 mM KCl, 30 min 20 C, 20 nM DNA, gel at 8 C; SPR: 100 mM NaPi pH 6.5, 20 mM KCl, 200 mM NaCl, 3 mM EDTA, 0.05% P20; BusR concentrations as tetramer; conditions: protein: recombinant; tags: His6-MBP removed with PreScission protease; chain copies: 4; blunt
BusR wt [11] = target: T2, BusR wt; assay: as above; conditions: protein: recombinant; tags: His6-MBP removed with PreScission protease; chain copies: 4; blunt
BusR wt [12] = target: T2, BusR wt; assay: cryo-EM; c-di-AMP; 7.1 A; EMSA: 100 mM KPi pH 6.5, 20 mM KCl, 30 min 20 C, 20 nM DNA, gel at 8 C; SPR: 100 mM NaPi pH 6.5, 20 mM KCl, 200 mM NaCl, 3 mM EDTA, 0.05% P20; BusR concentrations as tetramer; conditions: protein: recombinant; tags: His6-MBP removed with PreScission protease; chain copies: 4; blunt

For `Nc1ncnc2c1ncn2[C@@H]1O[C@@H]2COP(=O)(O)O[C@H]3[C@@H](O)[C@H](n4cnc5c(N)ncnc54)O[C@@H]3COP(=O)(O)O[C@H]2[C@H]1O` [c-di-AMP], the Kd (BusR) was 112 ± 7 nM.

Work on “His6-RCK_C domain of S. agalactiae BusR (Leu135 to end) (domain or fragment)” yielded a stoichiometry N [1] of 2 and a stoichiometry N [2] of 2.

“selenomethionine substituted full-length BusR from Streptococcus agalactiae (natural protein)” showed a stoichiometry N [3] of 4.

In the case of “BusR from Streptococcus agalactiae (full length) (natural protein)”, the stoichiometry N [4] is reported as 4, the stoichiometry N [5] is reported as 4 and the stoichiometry N [6] is reported as 4.

“RCK_C domain of S. agalactiae BusR (Leu135 to end), no His6-tag (domain or fragment)” was tested, and the stoichiometry N [7] was 2.

B1: pAB1 0BS (dsDNA)
DNA 1: ATAAAGTATGGTTAAAGTATCGTAAAAGGGTACATACTTTTTTACT
DNA 2: AGTAAAAAAGTATGTACCCTTTTACGATACTTTAACCATACTTTAT
B1: no binding (BusR wt [8]).

B2: pAB1 (SPR) (dsDNA)
DNA 1: ATAAAGTGACGTTAAAGTATCGTAAAAGGGTAGTCACTTTTTTACT
DNA 2: AGTAAAAAAGTGACTACCCTTTTACGATACTTTAACGTCACTTTAT
B2 gave a Kd (BusR W159A [9]) of 11 ± 2 nM, a Kd (BusR W159A [10]) of 34 ± 8 nM and a Kd (BusR wt [11]) of 5.1 ± 0.4 nM.

B3: pAB1 1BS-B (dsDNA)
DNA 1: ATAAAGTGACGTTAAAGTATCGTAAAAGGGTACATACTTTTTTACT
DNA 2: AGTAAAAAAGTATGTACCCTTTTACGATACTTTAACGTCACTTTAT
B3: no binding (BusR wt [8]).

B4: pAB1 1BS-A (dsDNA)
DNA 1: ATAAAGTATGGTTAAAGTATCGTAAAAGGGTAGTCACTTTTTTACT
DNA 2: AGTAAAAAAGTGACTACCCTTTTACGATACTTTAACCATACTTTAT
B4: no binding (BusR wt [8]).

B5: pAB1 -10bp (dsDNA)
DNA 1: ATAAAGTGACGTTAAAAGGGTAGTCACTTTTTTACT
DNA 2: AGTAAAAAAGTGACTACCCTTTTAACGTCACTTTAT
B5: no binding (BusR wt [8]).

B6: pAB1 +5bp (dsDNA)
DNA 1: ATAAAGTGACGTTAAAGTATCGTCGATTAAAAGGGTAGTCACTTTTTTACT
DNA 2: AGTAAAAAAGTGACTACCCTTTTAATCGACGATACTTTAACGTCACTTTAT
B6: no binding (BusR wt [8]).

B7: pAB1_EM (dsDNA)
DNA 1: CGGTAAAGTGACGTTAAAGTATCGTAAAAGGGTAGTCACTTTTCGG
DNA 2: CCGAAAAGTGACTACCCTTTTACGATACTTTAACGTCACTTTACCG
B7: binds (BusR wt [12]).
